# B1: E3 ubiquitin-protein ligase TRIM22 (Homo sapiens), Q8IYM9 (parent)
# chain: MDFSVKVDIEKEVTCPICLELLTEPLSLDCGHSFCQACITAKIKESVIISRGESSCPVCQTRFQPGNLRPNRHLANIVERVKEVKMSPQEGQKRDVCEHHGKKLQIFCKEDGKVICWVCELSQEHQGHQTFRINEVVKECQEKLQVALQRLIKEDQEAEKLEDDIRQERTAWKNYIQIERQKILKGFNEMRVILDNEEQRELQKLEEGEVNVLDNLAAATDQLVQQRQDASTLISDLQRRLRGSSVEMLQDVIDVMKRSESWTLKKPKSVSKKLKSVFRVPDLSGMLQVLKELTDVQYYWVDVMLNPGSATSNVAISVDQRQVKTVRTCTFKNSNPCDFSAFGVFGCQYFSSGKYYWEVDVSGKIAWILGVHSKISSLNKRKSSGFAFDPSVNYSKVYSRYRPQYGYWVIGLQNTCEYNAFEDSSSSDPKVLTLFMAVPPCRIGVFLDYEAGIVSFFNVTNHGALIYKFSGCRFSRPAYPYFNPWNCLVPMTVCPPSS
# Variants of: B1
# Details: with nod2_human NOD2, Q9HC29
# nod2_human NOD2, Q9HC29, sequence (Q9HC29 whole entry): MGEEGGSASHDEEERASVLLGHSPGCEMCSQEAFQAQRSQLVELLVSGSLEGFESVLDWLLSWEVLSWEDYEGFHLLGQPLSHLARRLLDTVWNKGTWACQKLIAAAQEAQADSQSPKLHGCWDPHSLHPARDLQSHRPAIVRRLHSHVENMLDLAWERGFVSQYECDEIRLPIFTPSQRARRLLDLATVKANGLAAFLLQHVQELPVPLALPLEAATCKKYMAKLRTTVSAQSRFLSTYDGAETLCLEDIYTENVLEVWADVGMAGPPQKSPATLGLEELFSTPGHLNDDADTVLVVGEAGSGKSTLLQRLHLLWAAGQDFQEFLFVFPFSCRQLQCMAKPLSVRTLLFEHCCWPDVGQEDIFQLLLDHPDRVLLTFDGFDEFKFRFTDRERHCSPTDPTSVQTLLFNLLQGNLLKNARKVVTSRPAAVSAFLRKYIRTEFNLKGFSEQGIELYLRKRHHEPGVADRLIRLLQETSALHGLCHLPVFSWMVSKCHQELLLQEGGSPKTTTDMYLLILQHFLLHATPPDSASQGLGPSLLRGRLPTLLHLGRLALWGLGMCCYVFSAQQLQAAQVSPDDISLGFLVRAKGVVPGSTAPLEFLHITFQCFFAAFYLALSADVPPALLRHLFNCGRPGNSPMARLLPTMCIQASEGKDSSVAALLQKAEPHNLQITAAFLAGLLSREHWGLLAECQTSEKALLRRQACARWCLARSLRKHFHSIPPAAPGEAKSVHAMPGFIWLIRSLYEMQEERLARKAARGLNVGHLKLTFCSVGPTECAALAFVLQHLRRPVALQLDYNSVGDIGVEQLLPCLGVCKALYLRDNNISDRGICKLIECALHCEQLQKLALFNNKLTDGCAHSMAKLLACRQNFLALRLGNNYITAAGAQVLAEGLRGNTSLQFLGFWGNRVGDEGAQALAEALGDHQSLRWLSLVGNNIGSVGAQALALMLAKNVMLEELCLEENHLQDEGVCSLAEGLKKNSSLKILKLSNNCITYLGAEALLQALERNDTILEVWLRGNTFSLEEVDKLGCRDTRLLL
row,Variant,effect of a mutation on the interaction
1,MDFSVKVDIEKEVTCPICLELLTEPLSLDCGHSFCQACITAKIKESVIISRGESSCPVCQTRFQPGNLRPNRHLANIVERVKEVKMSPQEGQKRDVCEHHGKKLQIFCKEDGKVICWVCELSQEHQGHQTFRINEVVKECQEKLQVALQRLIKEDQEAEKLEDDIRQERTAWKNYIQIERQKILKGFNEMRVILDNEEQRELQKLEEGEVNVLDNLAAATDQLVQQRQDASTLISDLQRRLRGSSVEMLQDVIDVMKRSESWTLKKPKSVSKKLKSVFRVPDLSGMLQVLKELTDVQYYWVDVMLNPGSATSNVAISVDQKQVKTVRTCTFKNSNPCDFSAFGVFGCQYFSSGKYYWEVDVSGKIAWILGVHSKISSLNKRKSSGFAFDPSVNYSKVYSRYRPQYGYWVIGLQNTCEYNAFEDSSSSDPKVLTLFMAVPPCRIGVFLDYEAGIVSFFNVTNHGALIYKFSGCRFSRPAYPYFNPWNCLVPMTVCPPSS [R321K],decreasing interaction strength
2,MDFSVKVDIEKEVTCPICLELLTEPLSLDCGHSFCQACITAKIKESVIISRGESSCPVCQTRFQPGNLRPNRHLANIVERVKEVKMSPQEGQKRDVCEHHGKKLQIFCKEDGKVICWVCELSQEHQGHQTFRINEVVKECQEKLQVALQTLIKEDQEAEKLEDDIRQERTAWKNYIQIERQKILKGFNEMRVILDNEEQRELQKLEEGEVNVLDNLAAATDQLVQQRQDASTLISDLQRRLRGSSVEMLQDVIDVMKRSESWTLKKPKSVSKKLKSVFRVPDLSGMLQVLKELTDVQYYWVDVMLNPGSATSNVAISVDQRQVKTVRTCTFKNSNPCDFSAFGVFGCQYFSSGKYYWEVDVSGKIAWILGVHSKISSLNKRKSSGFAFDPSVNYSKVYSRYRPQYGYWVIGLQNTCEYNAFEDSSSSDPKVLTLFMAVPPCRIGVFLDYEAGIVSFFNVTNHGALIYKFSGCRFSRPAYPYFNPWNCLVPMTVCPPSS [R150T],with no effect

# More lines, now with the values ahead:
row,effect of a mutation on the interaction,Variant
1,disrupting interaction strength,MDFSVKVDIEKEVTCPICLELLTEPLSLDCGHSFCQACITAKIKESVIISRGESSCPVCQTRFQPGNLRPNRHLANIVERVKEVKMSPQEGQKRDVCEHHGKKLQIFCKEDGKVICWVCELSQEHQGHQTFRINEVVKECQEKLQVALQRLIKEDQEAEKLEDDIRQERTAWKNYIQIERQKILKGFNEMRVILDNEEQRELQKLEEGEVNVLDNLAAATDQLVQQRQDASTLISDLQRRLRGSSVEMLQDVIDVMKRSESWTLKKPKSVSKKLKSVFRVPDLSGMLQVLKELTDVQYYWVDVMLNPGSATSNVAISVDQRQVKTVRTCTFKNSNPCDFSAFGVFGCQYFSSGKYYWEVDVSGKIAWILGVHSKISSLNKRKSSGFAFDPSVNYSKVYSRYRPQYGYWVIGLQNTCEYNAFEDSSSSDPKVLTLFMAVPPCCIGVFLDYEAGIVSFFNVTNHGALIYKFSGCRFSRPAYPYFNPWNCLVPMTVCPPSS [R442C]
2,decreasing interaction strength,MDFSVKVDIEKEVTCPICLELLTEPLSLDCGHSFCQACITAKIKESVIISRGESSCPVCQTRFQPGNLRPNRHLANIVERVKEVKMSPQEGQKRDVCEHHGKKLQIFCKEDGKVICWVCELSQEHQGHQTFRINEVVKECQEKLQVALQRLIKEDQEAEKLEDDIRQERTAWKNYIQIERQKILKGFNEMRVILDNEEQRELQKLEEGEVNVLDNLAAATDQLVQQRQDASTLISDLQRRLRGLSVEMLQDVIDVMKRSESWTLKKPKSVSKKLKSVFRVPDLSGMLQVLKELTDVQYYWVDVMLNPGSATSNVAISVDQRQVKTVRTCTFKNSNPCDFSAFGVFGCQYFSSGKYYWEVDVSGKIAWILGVHSKISSLNKRKSSGFAFDPSVNYSKVYSRYRPQYGYWVIGLQNTCEYNAFEDSSSSDPKVLTLFMAVPPCRIGVFLDYEAGIVSFFNVTNHGALIYKFSGCRFSRPAYPYFNPWNCLVPMTVCPPSS [S244L]
